Test results as given in doi:10.1101/2020.06.17.153486 (bioRxiv, 2020).

Target: SARS-CoV-2 RBD fused with SD1 (SARS-CoV-2, Wuhan-Hu-1 type, UniProt P0DTC2)
Experiment: ELISA

B1: mAb 2-4 (antibody, V domains shown)
VH: QVQLVQSGAEVKKPGASVKVSCKASGYTFTGYYMHWVRQAPGQGLEWMGWINPNSGGTNYTQMFQGRVTMTRDTSISTAYMEVSRLRSDDTAVYYCARDRSWAVVYYYMDVWGKGTTVTVSS
VL: QSALTQPPSASGSPGQSVTISCTGTSSDVGGYNYVSWYQQHPGKAPKLMIYEVSKRPSGVPDRFSGSKSGNTASLTVSGLQAEDEADYYCSSYAGSNNLVFGGGTKLTVL
B1: binds.
